Consider three molecules from patent publication US20260151519A1 (AKTIS ONCOLOGY, published 2026).

Bridges are numbered along the chain shown (N, C = ends). Primed or numbered codes have the meaning given here. The star is where a group is joined. DOTA = O=C(O)CN1CCN(CC(=O)O)CCN(CC(=O)*)CCN(CC(=O)O)CC1; PEG4″ = 4(ethylene glycol)

Experiment [1] concerns the target T1, Human Nectin-4 (human, UniProt Q96NY8 32-349, limits assumed).
T1 construct: Protein immobilised on the SPR chip; also called target protein
T1 sequence: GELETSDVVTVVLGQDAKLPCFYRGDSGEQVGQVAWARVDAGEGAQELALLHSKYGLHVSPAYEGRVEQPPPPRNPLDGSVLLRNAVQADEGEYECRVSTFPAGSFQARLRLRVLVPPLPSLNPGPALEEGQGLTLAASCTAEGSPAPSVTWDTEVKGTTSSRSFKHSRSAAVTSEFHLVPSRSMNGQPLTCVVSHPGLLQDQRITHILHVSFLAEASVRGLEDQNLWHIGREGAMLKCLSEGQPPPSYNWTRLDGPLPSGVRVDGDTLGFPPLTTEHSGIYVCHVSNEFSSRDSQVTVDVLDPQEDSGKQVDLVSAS
The experiment in a line: SPR, Biacore, 1:1 model, 25 C. The procedure:
(§1) Peptide binding affinity to the target protein was measured by SPR using an SPR machine, such as a Biacore T200 instrument. The target protein was covalently coupled to a Biacore chip surface using free amine-coupling chemistry (NHS/EDC) and all uncoupled sites were blocked with ethanolamine. Free peptides were flowed over the target protein surface in increasing concentrations to measure association (Kₐ, 1/Ms⁻¹)) and dissociation (Kd, s⁻¹) to calculate the dissociation equilibrium constant (KD) using an appropriate binding model (see, e.g., Nikolas Stroth, J Biol Methods. 2016; 3 (1)).
(§2) In FIGS. 1A, 1B, 2A, and 2B, lines on graphs are labeled from top to bottom, beginning with letter “a,” and the corresponding concentration is noted to the right of the figure.
In general terms: SPR reads the build-up and loss of mass on a sensor chip optically.

Another experiment has as its target T2, Murine Nectin-4 (mouse, UniProt Q8R007 31-347, limits assumed).
T2 construct: Protein immobilised on the SPR chip; also called mouse Nectin-4
T2 sequence: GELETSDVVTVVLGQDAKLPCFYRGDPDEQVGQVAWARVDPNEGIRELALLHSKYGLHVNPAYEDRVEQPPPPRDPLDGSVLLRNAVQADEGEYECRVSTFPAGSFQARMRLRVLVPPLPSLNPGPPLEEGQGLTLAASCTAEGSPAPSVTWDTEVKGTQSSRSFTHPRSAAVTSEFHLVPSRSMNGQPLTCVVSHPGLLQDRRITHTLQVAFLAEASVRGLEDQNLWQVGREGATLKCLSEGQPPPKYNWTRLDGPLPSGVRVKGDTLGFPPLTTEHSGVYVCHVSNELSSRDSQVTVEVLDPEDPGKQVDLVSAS
The experiment in a line: SPR, Biacore, 1:1 model, 25 C. The protocol: as §1, §2

The target of experiment [2] is T1, Human Nectin-4. The experiment in a line: Table 2B (DELFIA or SPR).

B1: C9 (designed binder)
chain: Ac-CEYDEEFFAGLKRLRGGDICYYIKKKFDKVPDLCIEEILDKLGC-OH
modifications: disulfide 1-34, 20-44
For the molecule B1, the figures for the Kd in the experiment with Human Nectin-4 [1], with Murine Nectin-4 and with Human Nectin-4 [2] were 7.5 nM, 7.83 nM and 7.5 nM, respectively. Further, the off-rate constant (koff) (as a rule, a measure of how fast the partners let go of each other) with Human Nectin-4 [1] came to 0.0227 s⁻¹; in the experiment with Murine Nectin-4, 0.0213 s⁻¹.

B2: C91 (designed binder)
chain: {DOTA-PEG4″}-CEYDEEFFAGLKRLRGGDICYYIKKKFDKVPDLCIEEILDKLGC-OH
modifications: disulfide 1-34, 20-44; also: 138La complex of DOTA
Turning to B2, in the experiment with Human Nectin-4 [1], the equilibrium dissociation constant (Kd) – broadly, a measure of binding affinity in units of concentration – was 17.9 nM and the koff was determined as 0.0297 s⁻¹. For the same molecule, in the experiment with Murine Nectin-4, binding was characterised by a dissociation constant (Kd) of 24.6 nM and the koff amounted to 0.0282 s⁻¹.

B3: C12 (designed binder)
chain: {DOTA-PEG4″}-CEYDEEFFAGLKRLRGGDICYYIKKKFDKVPDLCIEEILDKLGC-OH
modifications: disulfide 1-34, 20-44
With B3, the values for the koff with Human Nectin-4 [1] and with Murine Nectin-4 were 0.017 s⁻¹ and 0.0262 s⁻¹, respectively. Besides, the equilibrium dissociation constant (Kd) in the experiment with Murine Nectin-4 turned out to be 2.94 nM; with Human Nectin-4 [2] it was 10.5 nM.
